{"source": "paper PMC4446944", "about": "“The maize cytochrome P450 CYP79A61 produces phenylacetaldoxime and indole-3-acetaldoxime in heterologous systems and might contribute to plant defense and auxin formation” (BMC Plant Biology, 2015)", "proteins": {"B1": {"name": "CYP79A61 (Zea mays subsp. mays) (protein)", "chain": "MVSSPQANKFPLRKQISSPSSSCMAPHVLLVLVILLYLVRTLRPWRSRRNSTCCTPSLPPGPVPWPVVGNLPEMMLSDKPAFHWIHHIMKEAGTDIACIKLGGVHVIPISCPKIALEVLSNQDANFASRPLTFASKTFSTGYRDAAMSHCGDHWKKMRRVLASEIVCPSRHRWLHDKRADEADNLTRYVYNLATKAGSSGAVDVRHIARHYCGNVVRRLMFNTRYFGKPQPDSGPGPLEVQHVDAVFTSLGLLYSFCVSDYLPWLLGLDLDGHEKMVKEANERVTRLHDAVIDERWRLWKSGERRELEDFLDVLIMLKDAEAGRPVLSIEEVKALLMDITFASMDNPSNAVEWALAEMVNNPTMLKKAVDEIDSVVGQERLVQEHDIPRLNYTKACIREAFRLHPVAPFNVPHVAVADATVAGYRIPKGSHVILSRTGLGRNPDVWDDPLRFDPERHIPLSPEMEVSLVERDLRFISFSTGRRGCIAAALGTDMTIMLFGRLLQGFSWSKMTGVAAIDLSESRHNTFMARPLVLQAKPRLPAHLYPGILLCK", "notes": "complete open reading frame, untagged as far as told, pESC-Leu2d, Saccharomyces cerevisiae WAT11 microsomes with Arabidopsis CPR1"}}, "key": {"[1]": {"substrate": "N[C@@H](Cc1c[nH]c2ccccc12)C(=O)O", "assay": "yeast microsomes, LC-MS/MS of (E/Z)-indole-3-acetaldoxime formed", "assay_type": "biochemical, Zea mays", "details": "1 mM NADPH, 75 mM sodium phosphate pH 7.0, 25 °C, 30 min, microsomes with Arabidopsis CPR1"}, "[2]": {"substrate": "N[C@@H](Cc1ccccc1)C(=O)O", "assay": "yeast microsomes, LC-MS/MS of (E/Z)-phenylacetaldoxime formed", "assay_type": "biochemical, Zea mays", "details": "1 mM NADPH, 75 mM sodium phosphate pH 7.0, 25 °C, 30 min, microsomes with Arabidopsis CPR1"}}, "data": [{"protein": "B1", "values": [{"measurement": "Km", "setting": "[1]", "value": "150.2 ± 9.2", "unit": "µM"}, {"measurement": "Km", "setting": "[2]", "value": "117.2 ± 6.0", "unit": "µM"}]}]}
